We go through six molecules from patent publication US20250340659A1 (PETMEDIX, published 2025).

In test [1] the target is T1, canine OX40L, full length membrane form, expressed on HEK293 cells (canine).
T1 sequence: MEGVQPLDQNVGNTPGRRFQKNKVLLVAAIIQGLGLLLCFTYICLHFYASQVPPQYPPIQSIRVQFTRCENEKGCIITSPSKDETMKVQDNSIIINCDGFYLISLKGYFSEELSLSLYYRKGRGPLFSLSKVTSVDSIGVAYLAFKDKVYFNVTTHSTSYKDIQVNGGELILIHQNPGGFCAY
Kind of test: flow cytometry, OX40L HEK minus WT HEK. (In general: A flow cytometer gives signals particle by particle.)

For test [2] the target is unchanged. Nature of the test: flow cytometry.
In test [3] the target is T2, recombinant canine OX40L ECD-TNCc-HIS protein (canine).
T2 construct: also called Trimeric OX40L probe (HIS tag); trimeric canine OX40L
T2 chain: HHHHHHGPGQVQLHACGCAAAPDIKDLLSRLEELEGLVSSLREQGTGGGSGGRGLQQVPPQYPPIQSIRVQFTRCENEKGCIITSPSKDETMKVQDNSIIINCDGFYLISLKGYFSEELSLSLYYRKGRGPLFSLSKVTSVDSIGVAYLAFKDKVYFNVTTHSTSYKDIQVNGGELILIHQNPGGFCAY
Nature of the test: SPR Koff (kd1). In a few lines: (§1)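 Purified antigen amine-coupled at low density to a CM5 chip; candidate antibodies injected as analyte over a concentration range. Kinetic curves fitted with a bivalent analyte model to give functional affinity and dissociation rates.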

The target in test [4] is T2, recombinant canine OX40L ECD-TNCc-HIS …. Kind of test: SPR KD1, bivalent analyte model. In a few lines:
as §1

Test [5] addresses T3, canine OX40L, full length membrane form, expressed on HEK293 cells (canine).
T3 construct: also called OX40L expressing HEK; HEK OX40L cells
T3 chain: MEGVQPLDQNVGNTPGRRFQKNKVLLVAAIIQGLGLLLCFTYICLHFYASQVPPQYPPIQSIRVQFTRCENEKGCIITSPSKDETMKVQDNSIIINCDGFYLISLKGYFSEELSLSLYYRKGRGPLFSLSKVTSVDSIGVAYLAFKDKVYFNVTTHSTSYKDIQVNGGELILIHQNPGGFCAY
Kind of test: flow cytometry, OX40L HEK minus WT HEK. In a few lines: (§2)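 CHO supernatants at 1, 5 or 10 μg/ml in PBS/3% FBS incubated 30′ on ice with cells surface-expressing canine OX40L. Bound antibody detected with fluorescent anti-canine Fc secondary (1:1000, 30 min, dark) and measured by flow cytometry, with parental WT HEK signal subtracted where stated.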

Test [6] addresses T3, canine OX40L, full length membrane …. Kind of test: cell-based or functional assay.
Test [7] has as its target T2, recombinant canine OX40L ECD-TNCc-HIS …. Nature of the test: SPR Koff (kd2). In a few lines: as §1
Test [8] concerns the target T3, canine OX40L, full length membrane …. Nature of the test: flow cytometry. In a few lines:
as §2

For test [9], the target named is T1, canine OX40L, full length membrane form, expressed on HEK293 cells (canine). Kind of test: cell-based or functional assay. This is another data set of the same source.

Where two headings read alike, the source gives them in different places.

neg CTR returned a GEO mean difference in [1] of -4380. Besides, the GEO mean OX40L expressing HEK in [2] amounted to 19600.

B1: PMX043 (antibody)
heavy: EVQLVESGGDLVKPEGSLRLSCVVSGFTFSSYDMSWVRQAPGKGLQWVAYITNDGRYTSYTDAVKGRFTISRDNAKNTLYLQMNSLRTEDTAIYYCAKHGSSWSRGRFAMDYWGQGTSLFVSSASTTAPSVFPLAPSCGSTSGSTVALACLVSGYFPEPVTVSWNSGSLTSGVHTFPSVLQSSGLYSLSSMVTVPSSRWPSETFTCNVAHPASKTKVDKPVPKRENGRVPRPPDCPKCPAPESLGGPSVFIFPPKPKDTLLIARTPEVTCVVVDLGREDPEVQISWFVDGKQMQTAKTQPREEQFNGTYRVVSVLPIGHQDWLKGKQFTCKVNHIGLPSPIERTISKARGQAHQPSVYVLPPSREELSKNTVSLTCLIKDFFPPDIDVEWQSNGQQEPESKYRTTPPQLDEDGSYFLYSKLSVDKSRWQRGDTFICAVMHEALHNHYTQKSLSHSPGK
VL: SYVLTQLPSKNVTLNQPAHITCGGDSIGTKSVHWYQQKLGQAPVLIIFYDSSRPTGIPERFSGANSGNTATLTISGALAEDEADYYCQVWDSNASVFGGGTHLTVL
notes: also called PMX43
On to B1, for which the koff (commonly the first-order rate constant of dissociation) in test [3] stood at 0.00249 s⁻¹. For the same molecule, the Kd in test [4] is 0.017 µM. In addition, the GEO mean difference in test [5] came to 1.25e+06. In test [6], the “% Signal Inhibition Average” value is 80.8%, the “% Signal Inhibition Rep1” value was determined as 69.2%, the “% Signal Inhibition Rep2” value was 77.3% and the “% Signal Inhibition Rep3” value worked out at 96.1%. The off-rate constant (koff) in test [7] was 0.0022 s⁻¹. Also, in test [8], the “GEO mean OX40L expressing HEK” value came to 1.28e+06.

B2: PMX044 (antibody)
heavy: EVQLVESGGDPVKPEGSQRLSCVVSGFTFSSYDMSWVRQAPGKGLQWVAYITSDGRSTSYTDAVKGRFTISRDNARNTLFLQMNSLRTEDTAVYYCARHSSSWSRGRFGMDYWGHGTSLFVSSASTTAPSVFPLAPSCGSTSGSTVALACLVSGYFPEPVTVSWNSGSLTSGVHTFPSVLQSSGLYSLSSMVTVPSSRWPSETFTCNVAHPASKTKVDKPVPKRENGRVPRPPDCPKCPAPESLGGPSVFIFPPKPKDTLLIARTPEVTCVVVDLGREDPEVQISWFVDGKQMQTAKTQPREEQFNGTYRVVSVLPIGHQDWLKGKQFTCKVNHIGLPSPIERTISKARGQAHQPSVYVLPPSREELSKNTVSLTCLIKDFFPPDIDVEWQSNGQQEPESKYRTTPPQLDEDGSYFLYSKLSVDKSRWQRGDTFICAVMHEALHNHYTQKSLSHSPGK
VL: SYVLTQLPSKNVTLKQPAHITCGGDNIGSKSVHWYQQKLGQAPVLIIYYDSSRPTGIPERFSGANSGNTATLTISGALAEDEADYYCQVWDSSAGVFGGGTHLTVL
notes: also called PMX44
For the molecule B2, the koff in [3] came out at 0.000171 s⁻¹. Besides, in [4], the Kd stood at 0.00823 µM. Further, in test [5], the GEO mean difference was 1.5e+06. In addition, in [6], the “% Signal Inhibition Average” value stood at 75.1%, the “% Signal Inhibition Rep1” value was found to be 75.7%, the “% Signal Inhibition Rep2” value is 66% and the “% Signal Inhibition Rep3” value amounted to 83.6%. In test [7], the koff turned out to be 0.0598 s⁻¹. Further, in test [8], the “GEO mean OX40L expressing HEK” value was 1.53e+06.

B3: PMX046 (antibody)
heavy: EVQLVESGGDLVKPEGSLRLSCVVAGFTFNSYDMSWVRQAPGKGLQWVAYITSDGRFTSYTDAVKGRFTISRDNAKNTLYLQMSSLRTEDTAVYYCARHSSSWYRGRFGMDFWGHGTSLFVSSASTTAPSVFPLAPSCGSTSGSTVALACLVSGYFPEPVTVSWNSGSLTSGVHTFPSVLQSSGLYSLSSMVTVPSSRWPSETFTCNVAHPASKTKVDKPVPKRENGRVPRPPDCPKCPAPESLGGPSVFIFPPKPKDTLLIARTPEVTCVVVDLGREDPEVQISWFVDGKQMQTAKTQPREEQFNGTYRVVSVLPIGHQDWLKGKQFTCKVNHIGLPSPIERTISKARGQAHQPSVYVLPPSREELSKNTVSLTCLIKDFFPPDIDVEWQSNGQQEPESKYRTTPPQLDEDGSYFLYSKLSVDKSRWQRGDTFICAVMHEALHNHYTQKSLSHSPGK
VL: SYVLTQLPSKNVTLKQPAHITCGGDNIGSKSVHWYQQKLGQAPILIIYYDSSRPTGIPERFSGANSGNTATLTISGALAEDEADYYCQVWDSSASVFGGGTHLTVL
notes: also called PMX46
For the molecule B3, the koff in test [3] turned out to be 0.00101 s⁻¹. In test [4], the Kd was 0.0404 µM. For the same molecule, the GEO mean difference in [5] amounted to 1.22e+06. In [6], the “% Signal Inhibition Average” value is 84.8%, the “% Signal Inhibition Rep1” value was 84.8%, the “% Signal Inhibition Rep2” value came to 69.5% and the “% Signal Inhibition Rep3” value turned out to be 100%. Further, the koff in test [7] stood at 2.02e-05 s⁻¹. Besides, the “GEO mean OX40L expressing HEK” value in [8] amounted to 1.25e+06.

B4: PMX106 (antibody, V domains shown)
VH: EVQLVESGGDLVKPGGSLRLSCVASGFTFSSYHMSWVRQAPGKGLQWVAYINSGGSSTSYADAVKGRFTISRDNAKNTLYLQMNSLRAEDTAVYYCAGFIWTHFDYWGQGTLVTVSS
VL: DIVMTQTPPSLSVSPRETASISCKASQSLLHSDGNTYLDWYLQKPGQSPQLLIYLVSNRFTGVSDRFSGSGSGTDFTLRISRVEANDTGVYYCGQGTQLWTFGAGTKVELK
B4: in test [9], the % Signal Inhibition Average was -17.2%, the % Signal Inhibition Rep1 is -9.89%, the % Signal Inhibition Rep2 was -4.12% and the % Signal Inhibition Rep3 was -37.6%. For the same molecule, in test [1], the GEO mean difference worked out at 4100. Further, the GEO mean OX40L expressing HEK in test [2] turned out to be 7760.

B5: PMX026 (antibody, V domains shown)
VH: EVHLVESGGDLVKPGGSLRLSCVASGFTFSSYHMSWVRQAPGKGLQWVAFINAGEISTNYADAVKGRFTISRDNAKNILYLQMNSLRAEDTAVYYCASGHIWIRPFDYWGQGTLVTVSS
VL: SYVLTQLPSMSVTLRQTARITCEGDSIGRKRVNWYQQKLGQVPVLIIYDDDSRPSGIPERFSGANSGNTATLTISGALAEDEAEYYCQVWDSSNNWVFGEGTQLTVL
notes: also called PMX26
For the molecule B5, the koff in test [3] was 0.00191 s⁻¹. For the same molecule, the Kd in test [4] worked out at 0.903 µM. For the same molecule, the GEO mean difference in test [5] is 1.36e+06. In addition, in test [6], the “% Signal Inhibition Average” value came out at 67.1%, the “% Signal Inhibition Rep1” value was found to be 67.6%, the “% Signal Inhibition Rep2” value amounted to 65.1% and the “% Signal Inhibition Rep3” value turned out to be 68.7%. In test [7], the off-rate (koff) worked out at 0.00131 s⁻¹. The “GEO mean OX40L expressing HEK” value in test [8] came out at 1.39e+06.
